Data on 6 molecules can be found in US20080255046A1 (7TM PHARMA A S, published 2008).

Where no end group is shown, it is not given here. [ ]: non-standard residue; d: D form. Met(O) = CS(=O)CC[C@H](N)C(=O)O Some results are limits rather than exact numbers.

By Ki is commonly meant a dissociation constant, usually derived from enzyme kinetics or from competition with a known ligand.

The target of assay [1] is T1, rhesus monkey Y2 receptor (rhesus monkey, UniProt Q9GK74 1-381).
T1 sequence (looked up): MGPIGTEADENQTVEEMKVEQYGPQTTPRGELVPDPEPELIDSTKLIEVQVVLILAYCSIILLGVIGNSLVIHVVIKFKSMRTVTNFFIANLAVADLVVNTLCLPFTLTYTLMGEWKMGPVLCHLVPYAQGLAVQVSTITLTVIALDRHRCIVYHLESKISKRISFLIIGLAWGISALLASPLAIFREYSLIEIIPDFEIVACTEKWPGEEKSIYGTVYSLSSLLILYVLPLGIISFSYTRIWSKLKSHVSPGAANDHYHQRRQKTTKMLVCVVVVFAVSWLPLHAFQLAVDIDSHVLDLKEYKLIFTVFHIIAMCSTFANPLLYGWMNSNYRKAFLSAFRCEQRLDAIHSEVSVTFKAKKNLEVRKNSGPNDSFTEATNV
In words: cell-based or functional assay.

The target in assay [2] is T1, rhesus monkey Y2 receptor. In words: competition binding with 125I-PYY on CHO cells stably expressing rhesus monkey Y2. Here is the method: (§1) The stable transfected CHO cells are transferred to 48-well culture plates one day prior assay at a density of 2,500 cells per well aiming at 5-8% binding of the radioactive ligand. […] Binding assays are performed in 0.5 ml of a 50 mM Hepes buffer, pH 7.4, supplemented with 1 mM CaCl2, 5 mM MgCl2, and 0.1% (w/v) bovine serum albumin and 100 μg/ml bacitracin. Non-specific binding is determined as the binding in the presence of 1 μM of unlabeled human PYY. Cells are washed twice in 0.5 ml of ice-cold buffer and 0.5-1 ml of lysis buffer (8 M Urea, 2% NP40 in 3 M acetic acid) is added and the bound radioactivity is counted in a gamma counter. Determinations are made in triplicates. […] IC50 values were calculated using a standard pharmacological data handling software, Prism 3.0 (graphpad Sofware, San Diego, USA). Ki-values are calculated according the Cheng-Prusoff equation (Cheng Y, Prusoff W H., Biochem Pharmacol. 1973): Ki=[IC50/(1+[L]/Kd)], where Ki is the equilibrium inhibitory constant for the cold ligand, Kd is the equilibrium constant for the radiolabeled (hot) ligand and L is the concentration of the radiolabeled ligand used.

The target of assay [3] is rhesus monkey Y4 receptor (rhesus monkey). The assay is described as follows: cell-based or functional assay.
Assay [4] concerns the target rhesus monkey Y1 receptor (rhesus monkey). The assay is described as follows: cell-based or functional assay.
Assay [5] concerns the target T2, rhesus monkey Y1 receptor (rhesus monkey).
T2 construct: whole, on cells; also called rhY1
In words: competition binding on CHO cells expressing rhesus monkey Y1 (125I-PYY), compared with Y2. Here is the method: as §1
Protocol as for the Y2 affinity assay, except that CHO cells stably expressing rhesus monkey Y1 are used and cells are transferred to culture plates at a density of 23,000 cells per well.

Assay [6] concerns the target T3, rhesus monkey Y4 receptor (rhesus monkey).
T3 construct: whole, on cells; also called rhY4
The assay is described as follows: competition binding on CHO cells expressing rhesus monkey Y4 (125I-PP), compared with Y2. Here is the method:
as §1

B1: PYY (Peptide YY), human sequence (peptide)
peptide: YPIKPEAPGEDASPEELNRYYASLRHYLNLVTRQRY
modifications: C-terminally amidated
notes: also called PYY1-36; human PYY
As to B1, the “IP3 EC50 values at Y2” value in assay [1] was 0.18 nM. The molecule further displayed a Ki in assay [2] of 0.09 nM.

B2: NPY (Neuropeptide Y), human sequence (peptide)
peptide: not shown
modifications: C-terminally amidated
Consider B2, for which the “IP3 EC50 values at Y2” value in assay [1] was determined as 0.6 nM. In assay [2], the Ki came to 0.11 nM.

B3: [Lys4,Leu17,Met-sulfoxide30,Gln34]hPP (peptide)
peptide: APLKPVYPGDNATPEQLAQYAADLRRYIN[Met(O)]LTRQRY-NH2
modifications: N-terminus assumed
SMILES: CC[C@H](C)[C@H](NC(=O)[C@H](Cc1ccc(O)cc1)NC(=O)[C@H](CCCNC(=N)N)NC(=O)[C@H](CCCNC(=N)N)NC(=O)[C@H](CC(C)C)NC(=O)[C@H](CC(=O)O)NC(=O)[C@H](C)NC(=O)[C@H](C)NC(=O)[C@H](Cc1ccc(O)cc1)NC(=O)[C@H](CCC(N)=O)NC(=O)[C@H](C)NC(=O)[C@H](CC(C)C)NC(=O)[C@H](CCC(N)=O)NC(=O)[C@H](CCC(=O)O)NC(=O)[C@@H]1CCCN1C(=O)[C@@H](NC(=O)[C@H](C)NC(=O)[C@H](CC(N)=O)NC(=O)[C@H](CC(=O)O)NC(=O)CNC(=O)[C@@H]1CCCN1C(=O)[C@H](Cc1ccc(O)cc1)NC(=O)[C@@H](NC(=O)[C@@H]1CCCN1C(=O)[C@H](CCCCN)NC(=O)[C@H](CC(C)C)NC(=O)[C@@H]1CCCN1C(=O)[C@H](C)N)C(C)C)[C@@H](C)O)C(=O)N[C@@H](CC(N)=O)C(=O)N[C@@H](CCS(C)=O)C(=O)N[C@@H](CC(C)C)C(=O)N[C@H](C(=O)N[C@@H](CCCNC(=N)N)C(=O)N[C@@H](CCC(N)=O)C(=O)N[C@@H](CCCNC(=N)N)C(=O)N[C@@H](Cc1ccc(O)cc1)C(N)=O)[C@@H](C)O
notes: Human PP with Lys at 4, Leu at 17, oxidised Met at 30 and Gln at 34; also called [Lys4, Leu17, Met(O)30, Gln34]-PP; [Lys4,Leu17,oxidised Met30,Gln34]hPP
On to B3, for which the “IP3 EC50 values at Y2” value in assay [1] came out at 0.5 nM. In addition, the “fold selectivity in the potency assay (Y2 against Y4)” value (“fold selectivity … (Y2 against Y4)” for short) in assay [3] is not below 20 fold. Also, the “fold selectivity in the potency assay (Y2 against Y1)” value (“fold selectivity … (Y2 against Y1)” for short) in assay [4] is not below 100 fold. The molecule further had an inhibition constant Ki in assay [2] of 0.06 nM. Also, the “fold selectivity (affinity at Y2 against Y1)” value in assay [5] was not below 100 fold. Also, the “fold selectivity (affinity at Y2 against Y4)” value in assay [6] is not below 20 fold.

B4: [Lys4,Leu17,Thr30,Gln34]hPP (peptide)
peptide: APLKPVYPGDNATPEQLAQYAADLRRYINTLTRQRY-NH2
notes: Human PP with Lys at 4, Leu at 17, Thr at 30 and Gln at 34; also called [Lys4, Leu17, Thr30, Gln34]-PP; peptide (ii)
On to B4, for which, in assay [1], the “IP3 EC50 values at Y2” value is 0.71 nM. Also, the “fold selectivity … (Y2 against Y4)” value in assay [3] is not below 20 fold. Also, the “fold selectivity … (Y2 against Y1)” value in assay [4] was not below 100 fold. In assay [2], this molecule registered an inhibitory constant (Ki) of 0.47 nM. Further, the “fold selectivity (affinity at Y2 against Y1)” value in assay [5] is not below 100 fold. Besides, in assay [6], the “fold selectivity (affinity at Y2 against Y4)” value was not below 20 fold.

B5: PP (Pancreatic Polypeptide), human sequence (peptide)
peptide: APLEPVYPGDNATPEQMAQYAADLRRYINMLTRPRY-NH2
B5: the “IP3 EC50 values at Y2 (nM)” value in assay [1] is more than 1000 nM.

B6: [Lys4,Leu17,Ser30,Gln34]hPP (peptide)
peptide: APLKPVYPGDNATPEQLAQYAADLRRYINSLTRQRY-NH2
notes: also called [Lys4, Leu17, Ser30, Gln34]-PP; peptide (i)
As to B6, in assay [1], the “IP3 EC50 values at Y2” value stood at 0.67 nM. The “fold selectivity … (Y2 against Y4)” value in assay [3] was not below 20 fold. Further, the “fold selectivity … (Y2 against Y1)” value in assay [4] is not below 100 fold. The affinity in assay [2] corresponds to a Ki of 0.51 nM. In addition, the “fold selectivity (affinity at Y2 against Y1)” value in assay [5] is not below 100 fold. Besides, in assay [6], the “fold selectivity (affinity at Y2 against Y4)” value is not below 20 fold.
